Columns and labels:
human CXCR5 [1] = target: T1, human CXCR5 (human, UniProt P32302 1-372); test: flow cytometry on Raji cells, gMFI titration
T1 construct: also called hCXCR5; C-X-C chemokine receptor type 5
T1 sequence: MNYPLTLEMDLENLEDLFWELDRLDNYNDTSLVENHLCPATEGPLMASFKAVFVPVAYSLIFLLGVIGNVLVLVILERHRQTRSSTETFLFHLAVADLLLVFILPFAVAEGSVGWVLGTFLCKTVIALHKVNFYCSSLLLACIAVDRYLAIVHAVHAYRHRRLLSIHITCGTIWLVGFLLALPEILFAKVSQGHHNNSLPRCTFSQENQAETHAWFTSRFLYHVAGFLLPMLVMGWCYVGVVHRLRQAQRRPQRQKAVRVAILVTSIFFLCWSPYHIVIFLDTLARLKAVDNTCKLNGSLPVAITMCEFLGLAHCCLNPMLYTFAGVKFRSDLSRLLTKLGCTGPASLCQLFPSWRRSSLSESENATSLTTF
Procedure: The apparent affinity of antibody binding to Raji cells was calculated as the EC₅₀ of equilibrium binding titration curves in which the geometric mean fluorescence intensity (gMFI) of the antigen binding population was quantified by flow cytometry and the results are shown in Table 2.

cynomolgus monkey CXCR5 = target: T2, cynomolgus monkey CXCR5 (cynomolgus monkey, UniProt P32302 1-372 (human entry)); test: flow cytometry on cynoCXCR5-300.19 cells
T2 construct: also called cynoCXCR5; NHP CXCR5
T2 chain: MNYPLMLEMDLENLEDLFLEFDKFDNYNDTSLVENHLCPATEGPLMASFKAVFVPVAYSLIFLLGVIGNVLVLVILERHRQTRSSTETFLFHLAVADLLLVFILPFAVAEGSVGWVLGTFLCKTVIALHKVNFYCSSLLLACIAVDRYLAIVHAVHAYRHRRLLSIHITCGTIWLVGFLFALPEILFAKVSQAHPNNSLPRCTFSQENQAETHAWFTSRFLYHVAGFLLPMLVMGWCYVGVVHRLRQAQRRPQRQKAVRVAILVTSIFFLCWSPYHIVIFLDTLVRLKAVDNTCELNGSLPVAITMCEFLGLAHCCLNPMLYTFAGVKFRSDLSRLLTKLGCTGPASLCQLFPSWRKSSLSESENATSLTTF

XC276 = target: T3, XC276 (human, UniProt P32302 2-372); test: flow cytometry on HEK-293T cells transiently expressing the FLAG-tagged mutein; ratio of gMFI of the antibody to gMFI of anti-FLAG PE
T3 construct: also called hCXCR5 D10G
T3 sequence: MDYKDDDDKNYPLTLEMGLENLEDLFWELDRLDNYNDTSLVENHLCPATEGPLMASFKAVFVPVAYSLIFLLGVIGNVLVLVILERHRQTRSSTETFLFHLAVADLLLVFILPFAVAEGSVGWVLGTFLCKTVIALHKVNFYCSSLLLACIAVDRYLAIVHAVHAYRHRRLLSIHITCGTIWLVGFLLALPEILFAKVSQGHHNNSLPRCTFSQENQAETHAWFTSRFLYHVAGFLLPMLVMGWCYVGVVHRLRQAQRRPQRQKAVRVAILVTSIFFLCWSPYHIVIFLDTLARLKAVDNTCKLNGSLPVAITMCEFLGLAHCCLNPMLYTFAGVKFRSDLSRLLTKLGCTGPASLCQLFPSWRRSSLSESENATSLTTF
Procedure: (§1) The cells were analyzed by flow cytometry using an Accuri (BD Biosciences Franklin Lakes, N.J.). The geometric mean fluorescence intensity (gMFI) was determined and the ratio for the gMFI of each CXCR5 antibody and anti-flag was calculated.

XC277 = target: T4, XC277 (human, UniProt P32302 2-372); test: as above
T4 construct: also called hCXCR5 SI(insertion)
T4 sequence: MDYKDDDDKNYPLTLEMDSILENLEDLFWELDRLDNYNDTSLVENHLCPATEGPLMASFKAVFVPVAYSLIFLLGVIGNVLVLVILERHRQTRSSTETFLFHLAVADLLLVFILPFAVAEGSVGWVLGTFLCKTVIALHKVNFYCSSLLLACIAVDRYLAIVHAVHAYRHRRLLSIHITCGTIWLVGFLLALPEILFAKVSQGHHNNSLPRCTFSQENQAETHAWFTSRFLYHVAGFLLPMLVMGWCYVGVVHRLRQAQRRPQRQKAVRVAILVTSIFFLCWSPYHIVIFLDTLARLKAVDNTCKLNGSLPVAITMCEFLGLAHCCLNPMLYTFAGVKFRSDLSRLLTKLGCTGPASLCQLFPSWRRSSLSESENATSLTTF
Procedure: as §1

human CXCR5 [2] = target: T1, human CXCR5; test: flow cytometry, B cells from human PBMCs (FIG. 5); comparator 2C9
human CXCR5 [3] = target: T1, human CXCR5; test: flow cytometry on Raji cells, fucosylated chimeric antibody
Procedure: The fucosylated chimeric antibodies were then purified using protein A columns. The apparent affinity (cell binding EC50s) of chimeric antibody binding to Raji cells was determined by flow cytometry using a FACSVerse Analyzer (BD Bioscience, Franklin Lakes, N.J.) and are shown in Table 3.

CXCR4 = target: T5, CXCR4 (human, UniProt P61073 1-352); test: flow cytometry (GMFI) on Jurkat cells, which express CXCR4; chimeric antibody, goat anti-human PE
T5 construct: whole, on cells
Procedure: To determine the specificity of the antibodies for CXCR5, the binding of the antibodies to cells expressing other […] was assessed. Briefly, FlowCellect chemokine receptor cell lines expressing CXCR1, CXCR2, or CXCR3 (EMD Millipore, Billerica, Mass.), and Jurkats (ATCC, Manassas, Va.), which express CXCR4, were stained with 5 μg/ml or 10 μg/ml of each anti-CXCR5 chimeric antibody. The cells were then incubated with goat anti-human conjugated with PE (Southern Biotech, Birmingham, Ala.) prior to analysis by flow cytometry using a FACSVerse Analyzer (BD Biosciences, Franklin Lakes, N.J.).

human CXCR5 [4] = target: T1, human CXCR5; test: cell-based or functional assay
human CXCR5 [5] = target: T1, human CXCR5; test: flow cytometry, human PBMC B cells
human CXCR5 [6] = target: T1, human CXCR5; test: cell-based or functional assay; remark: listed apart in the source

T5 sequence (P61073 whole entry): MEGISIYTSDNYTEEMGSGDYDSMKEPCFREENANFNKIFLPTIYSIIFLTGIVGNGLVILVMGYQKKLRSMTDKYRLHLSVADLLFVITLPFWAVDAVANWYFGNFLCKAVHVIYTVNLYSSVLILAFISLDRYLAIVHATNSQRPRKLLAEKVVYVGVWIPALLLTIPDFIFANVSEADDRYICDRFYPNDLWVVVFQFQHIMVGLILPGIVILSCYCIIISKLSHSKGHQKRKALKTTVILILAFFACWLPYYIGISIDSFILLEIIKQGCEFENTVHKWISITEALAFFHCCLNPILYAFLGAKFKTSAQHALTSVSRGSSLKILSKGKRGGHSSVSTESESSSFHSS

B1: 2C9 (reference antibody) (antibody, human IgG1, kappa, V domains shown)
VH: EVQLVESGGGLVKPGGSLRLSCAASGFTFSTNAMNWVRQAPGKGLERVARIRSKSNNYATYYADSVKDRFTISRDDSKNTLYLQMNSLKTEDTAVYYCVTMIPFAYWGQGTLVTVSS
VL: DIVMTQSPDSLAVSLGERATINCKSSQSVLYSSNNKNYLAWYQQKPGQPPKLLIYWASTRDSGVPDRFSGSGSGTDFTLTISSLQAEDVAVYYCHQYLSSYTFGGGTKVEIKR
notes: fucosylated
Human CXCR5 [1]
  EC50: 0.21 nM
Cynomolgus monkey CXCR5
  EC50: 0.131 nM
XC276
  binding result: no binding (tested: 1 or 3 µg/ml (not on the sheet))
XC277
  binding result: no binding (tested: 1 or 3 µg/ml (not on the sheet))
Human CXCR5 [2]
  EC50: 0.0624 nM

B2: Chimeric 11G2 (antibody, human IgG1, kappa, V domains shown)
VH: EVKLVESGGGLVQPGGSLRLSCATSGFTFTDFYMSWVRQPPGRALEWLGFIRNKANGYTTEYSASVKGRFTISRDNSQSILYLQMNTLRAGDSATYYCVRVYGSTLHYWGQGTILTVSS
VL: DVVVTQSPDSLAVSLGQRATISCRASESVEYHGTSLMHWYQQKPGQPPKLLIYAASNVESGVPARFSGSGSGTDFSLNIHPVEEGDIAMYFCQQSRKVPWTFGGGTKLEIKR
notes: mouse V regions on human IgG1/kappa; also called 11G2 (chimeric)
Human CXCR5 [3]
  EC50: 0.0175 nM
CXCR4
  binding result: no binding (tested: 5 or 10 µg/ml (not on the sheet))

B3: Afucosyl humanized 11G2 154/155 (antibody, human IgG1, kappa, V domains shown)
VH: EVQLVESGGGLVQPGGSLRLSCAASGFTFTDFYMSWVRQAPGKGLEWVGFIRNKANGYTTEYSASVKGRFTISRDNAKNSLYLQMNSLRAEDTAVYYCARVYGSTLHYWGQGTLVTVSS
VL: DIQMTQSPSSLSASVGDRVTITCRASESVEYHGTSLMHWYQQKPGKAPKLLIYAASNVESGVPSRFSGSGSGTDFTLTISSLQPEDFATYYCQQSRKVPWTFGQGTKVEIKR
modifications: afucosylated Fc glycan (Asn297)
notes: also called afucosyl h11G2 XC154/XC155; afucosylated h11G2 VL XC154/VH XC155
Human CXCR5 [4]
  ADCC (EC50, pM): 2.38 pM
Human CXCR5 [5]
  fold higher affinity than 2C9: ~10 fold
  fold higher affinity than 11A7: ~100 fold
Human CXCR5 [6]
  EC50, functional antagonism (cAMP assay): 0.961 nM

— patent US20210101970A1 (Pfizer, published 2021)
